From PMC9352680, “A comprehensive thermodynamic model for RNA binding by the Saccharomyces cerevisiae Pumilio protein PUF4”

T1: PUF4 RNA-binding domain (Saccharomyces cerevisiae, UniProt P25339 537-888)
T1 sequence: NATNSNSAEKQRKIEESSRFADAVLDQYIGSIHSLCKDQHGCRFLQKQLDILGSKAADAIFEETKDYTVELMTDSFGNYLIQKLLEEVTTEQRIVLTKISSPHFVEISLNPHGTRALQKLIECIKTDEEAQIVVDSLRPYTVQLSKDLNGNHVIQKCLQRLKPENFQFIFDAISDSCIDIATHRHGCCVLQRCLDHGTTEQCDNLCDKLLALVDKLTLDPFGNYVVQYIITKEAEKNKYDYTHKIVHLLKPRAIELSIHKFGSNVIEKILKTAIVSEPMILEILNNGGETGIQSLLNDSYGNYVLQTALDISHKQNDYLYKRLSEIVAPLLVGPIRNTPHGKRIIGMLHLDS


Target: T1, PUF4 RNA-binding domain
Experiment: Mg; RNA-MaP; 20 mM Na-HEPES pH 7.4, 30 mM KOAc, 0.75 mM MgCl2, 0.1% Tween-20, 5% glycerol, 0.1 mg/mL BSA, 2 mM DTT; 25 C; 0.0125-409.6 nM protein
Conditions: tags: N-His6-TEV cleaved; C-SNAP kept, Cy3B-labelled; label: tethered on chip by stalled RNA polymerase

Row | Binder | Kd [nM]
1 | UCUCUUUGCAUGUAUCUCUU (ssRNA) [Ib_S1_P3E.1_K3.1_C3.1_H3.1_[T3C]_A3.1_[A6G]_F3.1_T3.1] | 535
2 | UCUCUUUGUUCAUAUCUCUU (ssRNA) [Ib_S1_P3E.1_K3.1_C3.1_H3.1_[A4T]_A3.1_[T5C]_F3.1_T3.1] | 682
3 | Ic_S2_P4E.1_K4.1_C4.1_H4.1_A4.1_[T5G]_[A6C]_[T7G]_F4.1_[A9C]_T4.1 (ssRNA) RNA: UUUGAUUAAUAUGAUAUCGUUCUUUCUUGUAGCGUCUUCUUUCUCGAUAUCAUAUUAAUCUUU | 782
4 | Ic_S2_P4E.1_K4.1_C4.1_H4.1_A4.1_[T5G]_[A6C]_[T7C]_F4.1_[T8C]_T4.1 (ssRNA) RNA: UUUGAUUAAUAUGAUAUCGUUCUUUCUUGUAGCCCAUUCUUUCUCGAUAUCAUAUUAAUCUUU | 1090
5 | Ic_S2_P4E.1_K4.1_C4.1_H4.1_A4.1_[T5G]_[A6C]_F4.1_[T8C]_T4.1 (ssRNA) RNA: UUUGAUUAAUAUGAUAUCGUUCUUUCUUGUAGCUCAUUCUUUCUCGAUAUCAUAUUAAUCUUU | 266
6 | Ic_S2_P4E.1_K4.1_C4.1_H4.1_A4.1_[T5G]_[A6C]_[T7A]_F4.1_[T8C]_T4.1 (ssRNA) RNA: UUUGAUUAAUAUGAUAUCGUUCUUUCUUGUAGCACAUUCUUUCUCGAUAUCAUAUUAAUCUUU | 828
7 | Ic_S2_P4E.1_K4.1_C4.1_H4.1_A4.1_[T5G]_[A6T]_[T7A]_F4.1_[T8A]_[A9T]_T4.1 (ssRNA) RNA: UUUGAUUAAUAUGAUAUCGUUCUUUCUUGUAGUAAUUUCUUUCUCGAUAUCAUAUUAAUCUUU | 342
8 | Ic_S2_P4E.1_K4.1_C4.1_H4.1_A4.1_[T5G]_[A6T]_[T7C]_F4.1_[T8C]_[A9G]_T4.1 (ssRNA) RNA: UUUGAUUAAUAUGAUAUCGUUCUUUCUUGUAGUCCGUUCUUUCUCGAUAUCAUAUUAAUCUUU | 732
9 | Ic_S2_P4E.1_K4.1_C4.1_H4.1_A4.1_[T5G]_[A6T]_[T7C]_F4.1_[T8G]_[A9T]_T4.1 (ssRNA) RNA: UUUGAUUAAUAUGAUAUCGUUCUUUCUUGUAGUCGUUUCUUUCUCGAUAUCAUAUUAAUCUUU | 288
10 | Ic_S2_P4E.1_K4.1_C4.1_H4.1_A4.1_[T5G]_[A6C]_F4.1_[A9G]_T4.1 (ssRNA) RNA: UUUGAUUAAUAUGAUAUCGUUCUUUCUUGUAGCUUGUUCUUUCUCGAUAUCAUAUUAAUCUUU | 208
11 | Ic_S2_P4E.1_K4.1_C4.1_H4.1_A4.1_[T5G]_[A6T]_[T7G]_F4.1_[T8C]_[A9G]_T4.1 (ssRNA) RNA: UUUGAUUAAUAUGAUAUCGUUCUUUCUUGUAGUGCGUUCUUUCUCGAUAUCAUAUUAAUCUUU | 651
12 | Ic_S2_P4E.1_K4.1_C4.1_H4.1_A4.1_[T5G]_[A6C]_[T7G]_F4.1_T4.1 (ssRNA) RNA: UUUGAUUAAUAUGAUAUCGUUCUUUCUUGUAGCGUAUUCUUUCUCGAUAUCAUAUUAAUCUUU | 9.8
13 | Ic_S2_P4E.1_K4.1_C4.1_H4.1_A4.1_[T5G]_[A6C]_F4.1_[T8G]_[A9G]_T4.1 (ssRNA) RNA: UUUGAUUAAUAUGAUAUCGUUCUUUCUUGUAGCUGGUUCUUUCUCGAUAUCAUAUUAAUCUUU | 709
14 | Ic_S2_P4E.1_K4.1_C4.1_H4.1_A4.1_[T5G]_[A6T]_[T7C]_F4.1_[A9C]_T4.1 (ssRNA) RNA: UUUGAUUAAUAUGAUAUCGUUCUUUCUUGUAGUCUCUUCUUUCUCGAUAUCAUAUUAAUCUUU | 149
15 | Ic_S2_P4E.1_K4.1_C4.1_H4.1_A4.1_[T5G]_[A6C]_[T7C]_F4.1_[A9T]_T4.1 (ssRNA) RNA: UUUGAUUAAUAUGAUAUCGUUCUUUCUUGUAGCCUUUUCUUUCUCGAUAUCAUAUUAAUCUUU | 48
16 | Ic_S2_P4E.1_K4.1_C4.1_H4.1_A4.1_[T5G]_[A6C]_[T7C]_F4.1_[T8C]_[A9C]_T4.1 (ssRNA) RNA: UUUGAUUAAUAUGAUAUCGUUCUUUCUUGUAGCCCCUUCUUUCUCGAUAUCAUAUUAAUCUUU | 685
17 | Ic_S2_P4E.1_K4.1_C4.1_H4.1_A4.1_[T5G]_[A6T]_[T7A]_F4.1_[T8G]_[A9T]_T4.1 (ssRNA) RNA: UUUGAUUAAUAUGAUAUCGUUCUUUCUUGUAGUAGUUUCUUUCUCGAUAUCAUAUUAAUCUUU | 984
18 | Ic_S2_P4E.1_K4.1_C4.1_H4.1_A4.1_[T5G]_[A6T]_[T7C]_F4.1_[T8C]_[A9T]_T4.1 (ssRNA) RNA: UUUGAUUAAUAUGAUAUCGUUCUUUCUUGUAGUCCUUUCUUUCUCGAUAUCAUAUUAAUCUUU | 121
19 | Ic_S2_P4E.1_K4.1_C4.1_H4.1_A4.1_[T5G]_[A6C]_[T7C]_F4.1_[A9G]_T4.1 (ssRNA) RNA: UUUGAUUAAUAUGAUAUCGUUCUUUCUUGUAGCCUGUUCUUUCUCGAUAUCAUAUUAAUCUUU | 300
20 | Ic_S2_P4E.1_K4.1_C4.1_H4.1_A4.1_[T5G]_[A6C]_[T7C]_F4.1_[T8A]_[A9C]_T4.1 (ssRNA) RNA: UUUGAUUAAUAUGAUAUCGUUCUUUCUUGUAGCCACUUCUUUCUCGAUAUCAUAUUAAUCUUU | 1280
21 | Ic_S2_P4E.1_K4.1_C4.1_H4.1_A4.1_[T5G]_[A6C]_[T7C]_F4.1_[T8C]_[A9G]_T4.1 (ssRNA) RNA: UUUGAUUAAUAUGAUAUCGUUCUUUCUUGUAGCCCGUUCUUUCUCGAUAUCAUAUUAAUCUUU | 1680
22 | Ic_S2_P4E.1_K4.1_C4.1_H4.1_A4.1_[T5G]_[A6C]_F4.1_[A9T]_T4.1 (ssRNA) RNA: UUUGAUUAAUAUGAUAUCGUUCUUUCUUGUAGCUUUUUCUUUCUCGAUAUCAUAUUAAUCUUU | 30.4

Row | Binder | Kd [nM]
23 | Ic_S2_P4E.1_K4.1_C4.1_H4.1_A4.1_[T5G]_[A6C]_[T7C]_F4.1_[T8A]_[A9T]_T4.1 (ssRNA) RNA: UUUGAUUAAUAUGAUAUCGUUCUUUCUUGUAGCCAUUUCUUUCUCGAUAUCAUAUUAAUCUUU | 402
24 | Ic_S2_P4E.1_K4.1_C4.1_H4.1_A4.1_[T5G]_[A6C]_[T7A]_F4.1_[A9G]_T4.1 (ssRNA) RNA: UUUGAUUAAUAUGAUAUCGUUCUUUCUUGUAGCAUGUUCUUUCUCGAUAUCAUAUUAAUCUUU | 27.6
25 | Ic_S2_P4E.1_K4.1_C4.1_H4.1_A4.1_[T5G]_[A6T]_[T7C]_F4.1_[T8G]_[A9C]_T4.1 (ssRNA) RNA: UUUGAUUAAUAUGAUAUCGUUCUUUCUUGUAGUCGCUUCUUUCUCGAUAUCAUAUUAAUCUUU | 598
26 | Ic_S2_P4E.1_K4.1_C4.1_H4.1_A4.1_[T5G]_[A6C]_F4.1_[A9C]_T4.1 (ssRNA) RNA: UUUGAUUAAUAUGAUAUCGUUCUUUCUUGUAGCUUCUUCUUUCUCGAUAUCAUAUUAAUCUUU | 52.2
27 | Ic_S2_P4E.1_K4.1_C4.1_H4.1_A4.1_[T5G]_[A6T]_[T7C]_F4.1_[A9T]_T4.1 (ssRNA) RNA: UUUGAUUAAUAUGAUAUCGUUCUUUCUUGUAGUCUUUUCUUUCUCGAUAUCAUAUUAAUCUUU | 41.9
28 | Ic_S2_P4E.1_K4.1_C4.1_H4.1_A4.1_[T5G]_[A6C]_[T7C]_F4.1_T4.1 (ssRNA) RNA: UUUGAUUAAUAUGAUAUCGUUCUUUCUUGUAGCCUAUUCUUUCUCGAUAUCAUAUUAAUCUUU | 5.95
29 | Ic_S2_P4E.1_K4.1_C4.1_H4.1_A4.1_[T5G]_[A6T]_[T7A]_F4.1_[T8A]_T4.1 (ssRNA) RNA: UUUGAUUAAUAUGAUAUCGUUCUUUCUUGUAGUAAAUUCUUUCUCGAUAUCAUAUUAAUCUUU | 407
30 | Ic_S2_P4E.1_K4.1_C4.1_H4.1_A4.1_[T5G]_[A6C]_F4.1_[T8A]_T4.1 (ssRNA) RNA: UUUGAUUAAUAUGAUAUCGUUCUUUCUUGUAGCUAAUUCUUUCUCGAUAUCAUAUUAAUCUUU | 111
31 | Ic_S2_P4E.1_K4.1_C4.1_H4.1_A4.1_[T5G]_[A6C]_F4.1_[T8A]_[A9G]_T4.1 (ssRNA) RNA: UUUGAUUAAUAUGAUAUCGUUCUUUCUUGUAGCUAGUUCUUUCUCGAUAUCAUAUUAAUCUUU | 846
32 | Ic_S2_P4E.1_K4.1_C4.1_H4.1_A4.1_[T5G]_[A6T]_[T7C]_F4.1_[T8C]_[A9C]_T4.1 (ssRNA) RNA: UUUGAUUAAUAUGAUAUCGUUCUUUCUUGUAGUCCCUUCUUUCUCGAUAUCAUAUUAAUCUUU | 473
33 | Ic_S2_P4E.1_K4.1_C4.1_H4.1_A4.1_[T5G]_[A6C]_[T7C]_F4.1_[T8C]_[A9T]_T4.1 (ssRNA) RNA: UUUGAUUAAUAUGAUAUCGUUCUUUCUUGUAGCCCUUUCUUUCUCGAUAUCAUAUUAAUCUUU | 614
34 | Ic_S2_P4E.1_K4.1_C4.1_H4.1_A4.1_[T5G]_[A6C]_F4.1_[T8C]_[A9G]_T4.1 (ssRNA) RNA: UUUGAUUAAUAUGAUAUCGUUCUUUCUUGUAGCUCGUUCUUUCUCGAUAUCAUAUUAAUCUUU | 988
35 | Ic_S2_P4E.1_K4.1_C4.1_H4.1_A4.1_[T5G]_[A6C]_[T7A]_F4.1_[T8A]_T4.1 (ssRNA) RNA: UUUGAUUAAUAUGAUAUCGUUCUUUCUUGUAGCAAAUUCUUUCUCGAUAUCAUAUUAAUCUUU | 360
36 | Ic_S2_P4E.1_K4.1_C4.1_H4.1_A4.1_[T5G]_[A6C]_[T7A]_F4.1_T4.1 (ssRNA) RNA: UUUGAUUAAUAUGAUAUCGUUCUUUCUUGUAGCAUAUUCUUUCUCGAUAUCAUAUUAAUCUUU | 1.41
37 | Ic_S2_P4E.1_K4.1_C4.1_H4.1_A4.1_[T5G]_[A6C]_[T7A]_F4.1_[A9T]_T4.1 (ssRNA) RNA: UUUGAUUAAUAUGAUAUCGUUCUUUCUUGUAGCAUUUUCUUUCUCGAUAUCAUAUUAAUCUUU | 9.32
38 | Ic_S2_P4E.1_K4.1_C4.1_H4.1_A4.1_[T5G]_[A6T]_[T7G]_F4.1_[T8C]_[A9T]_T4.1 (ssRNA) RNA: UUUGAUUAAUAUGAUAUCGUUCUUUCUUGUAGUGCUUUCUUUCUCGAUAUCAUAUUAAUCUUU | 478
39 | Ic_S2_P4E.1_K4.1_C4.1_H4.1_A4.1_[T5G]_[A6C]_[T7C]_F4.1_[T8G]_[A9C]_T4.1 (ssRNA) RNA: UUUGAUUAAUAUGAUAUCGUUCUUUCUUGUAGCCGCUUCUUUCUCGAUAUCAUAUUAAUCUUU | > 2300
40 | Ic_S2_P4E.1_K4.1_C4.1_H4.1_A4.1_[T5G]_[A6T]_[T7C]_F4.1_T4.1 (ssRNA) RNA: UUUGAUUAAUAUGAUAUCGUUCUUUCUUGUAGUCUAUUCUUUCUCGAUAUCAUAUUAAUCUUU | 4.56
41 | Ic_S2_P4E.1_K4.1_C4.1_H4.1_A4.1_[T5G]_[A6C]_[T7C]_F4.1_[T8A]_[A9G]_T4.1 (ssRNA) RNA: UUUGAUUAAUAUGAUAUCGUUCUUUCUUGUAGCCAGUUCUUUCUCGAUAUCAUAUUAAUCUUU | > 2300
42 | Ic_S2_P4E.1_K4.1_C4.1_H4.1_A4.1_[T5G]_[A6T]_[T7C]_F4.1_[T8C]_T4.1 (ssRNA) RNA: UUUGAUUAAUAUGAUAUCGUUCUUUCUUGUAGUCCAUUCUUUCUCGAUAUCAUAUUAAUCUUU | 527
43 | UCUCUUUAUAUUUAUCUCUU (ssRNA) [Ib_S1_P3E.1_K3.1_C3.1_H3.1_[G2A]_A3.1_[A6T]_F3.1_T3.1] | > 2300
44 | UCUCUUUGCAAAUAUCUCUU (ssRNA) [Ib_S1_P3E.1_K3.1_C3.1_H3.1_[T3C]_A3.1_[T5A]_F3.1_T3.1] | > 2300
